Assay results published in publication PMC3941021 (Nature structural & molecular biology, 2013).
Where two headings read alike, the source gives them in different places.

How the values were obtained:
Assay in all cases: crystal structure
[1] = target: T1, EphA4 ectodomain (EphA4_(ecto)), human (human, UniProt P54764 20-547)
[2] = target: lysine-methylated EphA4 ectodomain (EphA4_(ecto)), human (human, UniProt P54764 20-547, lysine-methylated)
[3] = target: T1, EphA4 ectodomain (EphA4_(ecto)), human; remark: listed apart in the source

T1 sequence (P54764 20-547): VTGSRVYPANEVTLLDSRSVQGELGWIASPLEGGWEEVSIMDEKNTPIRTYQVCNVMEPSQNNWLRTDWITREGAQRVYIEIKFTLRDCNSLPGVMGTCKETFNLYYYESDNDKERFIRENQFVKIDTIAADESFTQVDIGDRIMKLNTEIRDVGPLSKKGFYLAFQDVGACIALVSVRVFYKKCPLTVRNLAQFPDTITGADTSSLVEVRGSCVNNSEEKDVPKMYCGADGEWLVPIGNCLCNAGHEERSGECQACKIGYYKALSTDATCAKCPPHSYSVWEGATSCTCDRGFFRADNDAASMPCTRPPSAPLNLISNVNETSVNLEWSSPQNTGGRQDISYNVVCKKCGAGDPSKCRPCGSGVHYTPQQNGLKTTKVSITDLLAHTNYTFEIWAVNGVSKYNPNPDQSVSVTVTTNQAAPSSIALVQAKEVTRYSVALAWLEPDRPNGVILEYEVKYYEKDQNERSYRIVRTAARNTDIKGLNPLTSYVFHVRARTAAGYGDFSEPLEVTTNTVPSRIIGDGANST
lysine-methylated EphA4 ectodomain (EphA4_(ecto)), human, sequence (P54764 20-547): as above

B1: ephrinB3 receptor-binding domain (RBD), human (domain or fragment)
chain: GLSLEPVYWNSANKRFQAEGGYVLYPQIGDRLDLLCPRARPPGPHSSPNYEFYKLYLVGGAQGRRCEAPPAPNLLLTCDRPDLDLRFTIKFQEYSPNLWGHEFRSHHDYYIIATSDGTREGLESLQGGVCLTRGMKVLLRVGQ
B1: binds [1].

B2: ephrinA5 receptor-binding domain (RBD), human, of the lysine-methylated complex sample (domain or fragment)
chain: AVADRYAVYWNSSNPRFQRGDYHIDVCINDYLDVFCPHYEDSVPEDKTERYVLYMVNFDGYSACDHTSKGFKRWECNRPHSPNGPLKFSEKFQLFTPFSLGFEFRPGREYFYISSAIPDNGRRSCLKLKVFVRPTNSCMK
modifications: lysine-methylated (the paper calls the EphA4_(ecto)-ephrinA5 RBD complex sample lysine-methylated)
B2: binds [2].

B3: ephrinA5 receptor-binding domain (RBD), human (domain or fragment)
chain: B2 chain
B3: binds [3].
